# Measured values reported in patent publication US20190167710A1 (UNIVERSITY OF PITTSBURGH OF THE COMMONWEALTH SYSTEM OF …, published 2019).
# How the values were obtained:
# [1] = biological target: T1, anaplastic lymphoma kinase (ALK), mouse, endogenous in iBMDMs and RAW264.7 cells (mouse, UniProt P97793 19-1621, limits assumed); assay: co-immunoprecipitation from iBMDMs and RAW264.7 cells after 3'3'-cGAMP or c-di-AMP (10 µg/ml, 16 h)
# T1 construct: Endogenous protein in lysates of mouse macrophage lines (co-immunoprecipitation); also called ALK Receptor Tyrosine Kinase
# Protocol: (§1) Concentrations of proteins in the supernatant were determined by bicinchoninic acid assay. […] Following incubation, agarose/sepharose beads were washed extensively with PBS and proteins were eluted by boiling in 2× sodium dodecyl sulfate (SDS) sample buffer before SDS-PAGE electrophoresis.
# (§2) To elucidate the possible role of ALK in the regulation of the STING signaling pathway, we tested whether ALK promotes the phosphorylation of core components of the STING pathway (STING, TBK1, and cGAS) through protein-protein interaction using co-immunoprecipitation techniques.
# [2] = biological target: T2, anaplastic lymphoma kinase (ALK), human, endogenous in THP1 cells (human, UniProt Q9UM73 19-1620, limits assumed); assay: co-immunoprecipitation from THP1 cells after 3'3'-cGAMP or c-di-AMP (10 µg/ml, 16 h)
# T2 construct: Endogenous protein in lysates of human THP1 monocytes; also called ALK Receptor Tyrosine Kinase
# Protocol: as §1, §2
# T1 sequence (P97793 19-1621 limits assumed): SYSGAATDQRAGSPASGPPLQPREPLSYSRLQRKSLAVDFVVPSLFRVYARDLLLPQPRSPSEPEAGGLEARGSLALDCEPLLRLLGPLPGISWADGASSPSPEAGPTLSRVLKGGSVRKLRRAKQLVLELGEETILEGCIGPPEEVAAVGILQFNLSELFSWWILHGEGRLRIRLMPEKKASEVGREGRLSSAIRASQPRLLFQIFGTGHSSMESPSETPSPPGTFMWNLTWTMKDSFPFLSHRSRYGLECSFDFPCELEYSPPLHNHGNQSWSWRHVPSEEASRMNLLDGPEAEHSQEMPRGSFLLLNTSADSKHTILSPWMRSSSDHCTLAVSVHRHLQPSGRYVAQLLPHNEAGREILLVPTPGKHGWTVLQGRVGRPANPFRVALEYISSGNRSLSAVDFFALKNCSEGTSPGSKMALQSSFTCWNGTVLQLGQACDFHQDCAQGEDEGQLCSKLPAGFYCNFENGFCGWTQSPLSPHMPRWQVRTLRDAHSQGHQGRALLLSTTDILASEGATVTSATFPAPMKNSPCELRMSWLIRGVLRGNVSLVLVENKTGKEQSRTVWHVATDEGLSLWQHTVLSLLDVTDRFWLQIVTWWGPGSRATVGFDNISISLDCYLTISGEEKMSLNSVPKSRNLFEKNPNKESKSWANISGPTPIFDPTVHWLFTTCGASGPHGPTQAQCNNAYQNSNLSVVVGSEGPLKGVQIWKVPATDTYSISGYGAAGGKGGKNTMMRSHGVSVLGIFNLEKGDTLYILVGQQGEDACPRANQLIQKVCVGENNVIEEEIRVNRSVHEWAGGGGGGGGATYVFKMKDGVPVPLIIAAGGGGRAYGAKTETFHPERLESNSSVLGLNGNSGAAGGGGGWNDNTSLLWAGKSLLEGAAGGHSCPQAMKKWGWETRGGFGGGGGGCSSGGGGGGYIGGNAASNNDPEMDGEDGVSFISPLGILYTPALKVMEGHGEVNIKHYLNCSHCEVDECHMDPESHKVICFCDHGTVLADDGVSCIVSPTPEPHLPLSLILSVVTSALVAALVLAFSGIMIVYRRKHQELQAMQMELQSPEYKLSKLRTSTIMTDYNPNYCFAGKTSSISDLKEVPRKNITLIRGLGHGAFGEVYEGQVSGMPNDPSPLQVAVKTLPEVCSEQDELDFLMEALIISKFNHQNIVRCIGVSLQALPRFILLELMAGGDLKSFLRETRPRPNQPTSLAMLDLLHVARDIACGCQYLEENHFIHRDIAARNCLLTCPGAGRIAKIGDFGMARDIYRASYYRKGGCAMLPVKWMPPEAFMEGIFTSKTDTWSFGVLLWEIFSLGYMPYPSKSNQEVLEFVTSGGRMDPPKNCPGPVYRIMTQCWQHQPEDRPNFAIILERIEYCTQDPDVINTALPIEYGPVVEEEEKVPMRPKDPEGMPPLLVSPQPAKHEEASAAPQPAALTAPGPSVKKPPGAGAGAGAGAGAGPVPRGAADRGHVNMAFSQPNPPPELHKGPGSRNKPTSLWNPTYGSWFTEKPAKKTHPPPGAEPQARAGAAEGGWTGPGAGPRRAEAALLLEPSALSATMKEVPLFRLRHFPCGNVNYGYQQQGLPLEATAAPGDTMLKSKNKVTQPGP
# T2 sequence (Q9UM73 19-1620 limits assumed): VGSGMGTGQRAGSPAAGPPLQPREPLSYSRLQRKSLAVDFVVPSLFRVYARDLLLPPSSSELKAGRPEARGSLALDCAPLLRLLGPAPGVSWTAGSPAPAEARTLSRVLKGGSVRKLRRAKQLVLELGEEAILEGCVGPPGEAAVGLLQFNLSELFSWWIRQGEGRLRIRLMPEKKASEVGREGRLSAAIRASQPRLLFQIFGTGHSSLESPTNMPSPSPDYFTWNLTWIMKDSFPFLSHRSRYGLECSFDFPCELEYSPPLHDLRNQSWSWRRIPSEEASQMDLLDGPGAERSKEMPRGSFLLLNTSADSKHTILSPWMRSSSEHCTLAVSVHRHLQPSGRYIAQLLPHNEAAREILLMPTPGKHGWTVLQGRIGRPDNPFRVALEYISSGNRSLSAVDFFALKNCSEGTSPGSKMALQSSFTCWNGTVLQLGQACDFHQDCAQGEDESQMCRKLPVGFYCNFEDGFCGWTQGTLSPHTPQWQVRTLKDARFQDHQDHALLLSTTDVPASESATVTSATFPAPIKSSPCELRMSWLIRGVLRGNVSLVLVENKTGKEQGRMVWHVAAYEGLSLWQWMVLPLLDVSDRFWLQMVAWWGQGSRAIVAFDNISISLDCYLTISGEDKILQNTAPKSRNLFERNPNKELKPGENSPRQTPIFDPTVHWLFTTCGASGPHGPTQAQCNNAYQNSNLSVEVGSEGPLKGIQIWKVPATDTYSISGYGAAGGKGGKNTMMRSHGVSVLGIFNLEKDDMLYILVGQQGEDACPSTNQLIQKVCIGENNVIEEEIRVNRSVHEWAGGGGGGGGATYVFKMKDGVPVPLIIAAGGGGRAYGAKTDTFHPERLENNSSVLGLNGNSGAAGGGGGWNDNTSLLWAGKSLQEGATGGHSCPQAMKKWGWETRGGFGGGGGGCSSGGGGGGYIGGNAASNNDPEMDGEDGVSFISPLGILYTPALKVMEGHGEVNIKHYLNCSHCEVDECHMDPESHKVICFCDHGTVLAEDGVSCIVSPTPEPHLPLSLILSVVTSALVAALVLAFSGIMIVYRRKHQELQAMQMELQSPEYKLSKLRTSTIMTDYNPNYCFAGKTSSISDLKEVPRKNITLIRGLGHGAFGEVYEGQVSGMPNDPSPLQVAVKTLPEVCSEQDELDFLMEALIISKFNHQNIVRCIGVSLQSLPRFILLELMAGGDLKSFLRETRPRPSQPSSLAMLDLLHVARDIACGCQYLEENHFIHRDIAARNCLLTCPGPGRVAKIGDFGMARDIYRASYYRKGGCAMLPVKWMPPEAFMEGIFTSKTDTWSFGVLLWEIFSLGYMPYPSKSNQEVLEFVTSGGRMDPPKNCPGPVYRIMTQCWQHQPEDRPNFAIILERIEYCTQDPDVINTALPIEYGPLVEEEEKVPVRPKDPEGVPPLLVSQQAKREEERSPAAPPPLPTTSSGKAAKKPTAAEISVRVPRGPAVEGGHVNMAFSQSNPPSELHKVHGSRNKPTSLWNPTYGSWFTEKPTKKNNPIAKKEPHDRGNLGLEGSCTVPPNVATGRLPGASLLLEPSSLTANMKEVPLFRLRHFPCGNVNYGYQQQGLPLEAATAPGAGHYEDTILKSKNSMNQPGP
binding result [1],binding result [2],Binder
no binding,,"TIR-domain-containing adapter-inducing interferon-β (TRIF), mouse, endogenous in iBMDMs and RAW264.7 cells (other, UniProt Q80UF7 1-732, looked up, Endogenous protein in cell lysates; also called TICAM-1) MDNPGPSLRGAFGILGALERDRLTHLKHKLGSLCSGSQESKLLHAMVLLALGQDTEARVSLESLKMNTVAQLVAHQWADMETTEGPEEPPDLSWTVARLYHLLAEENLCPASTRDMAYQVALRDFASQGDHQLGQLQNEAWDRCSSDIKGDPSGFQPLHSHQGSLQPPSASPAVTRSQPRPIDTPDWSWGHTLHSTNSTASLASHLEISQSPTLAFLSSHHGTHGPSKLCNTPLDTQEPQLVPEGCQEPEEISWPPSVETSVSLGLPHEISVPEVSPEEASPILPDALAAPDTSVHCPIECTELSTNSRSPLTSTTESVGKQWPITSQRSPQVPVGDDSLQNTTSSSPPAQPPSLQASPKLPPSPLSSASSPSSYPAPPTSTSPVLDHSETSDQKFYNFVVIHARADEQVALRIREKLETLGVPDGATFCEEFQVPGRGELHCLQDAIDHSGFTILLLTASFDCSLSLHQINHALMNSLTQSGRQDCVIPLLPLECSQAQLSPDTTRLLHSIVWLDEHSPIFARKVANTFKTQKLQAQRVRWKKAQEARTLKEQSIQLEAERQNVAAISAAYTAYVHSYRAWQAEMNKLGVAFGKNLSLGTPTPSWPGCPQPIPSHPQGGTPVFPYSPQPPSFPQPPCFPQPPSFPQPPSFPLPPVSSPQSQSFPSASSPAPQTPGPQPLIIHHAQMVQLGVNNHMWGHTGAQSSDDKTECSENPCMGPLTDQGEPLLETPE"
no binding,,"TANK-binding kinase 1 (TBK1), mouse, endogenous in iBMDMs and RAW264.7 cells (enzyme, UniProt Q9WUN2 1-729, looked up, Endogenous protein in cell lysates; also called TBK1/NAK) MQSTSNHLWLLSDILGQGATANVFRGRHKKTGDLYAVKVFNNISFLRPVDVQMREFEVLKKLNHKNIVKLFAIEEETTTRHKVLIMEFCPCGSLYTVLEEPSNAYGLPESEFLIVLRDVVGGMNHLRENGIVHRDIKPGNIMRVIGEDGQSVYKLTDFGAARELEDDEQFVSLYGTEEYLHPDMYERAVLRKDHQKKYGATVDLWSVGVTFYHAATGSLPFRPFEGPRRNKEVMYKIITGKPSGAISGVQKAENGPIDWSGDMPLSCSLSQGLQALLTPVLANILEADQEKCWGFDQFFAETSDVLHRMVIHVFSLQHMTAHKIYIHSYNTAAVFHELVYKQTKIVSSNQELIYEGRRLVLELGRLAQHFPKTTEENPIFVTSREQLNTVGLRYEKISLPKIHPRYDLDGDASMAKAVTGVVCYACRTASTLLLYQELMRKGVRWLVELVKDDYNETVHKKTEVVITLDFCIRNIEKTVKVYEKLMKVNLEAAELGEISDIHTKLLRLSSSQGTIESSLQDISSRLSPGGLLADTWAHQEGTHPRDRNVEKLQVLLNCITEIYYQFKKDKAERRLAYNEEQIHKFDKQKLYYHATKAMSHFSEECVRKYEAFKDKSEEWMRKMLHLRKQLLSLTNQCFDIEEEVSKYQDYTNELQETLPQKMLAASGGVKHAMAPIYPSSNTLVEMTLGMKKLKEEMEGVVKELAENNHILERFGSLTMDGGLRNVDCL"

# Second part, the binder before the results:
Binder,binding result [1],binding result [2]
"cyclic-guanosine monophosphate-adenosine monophosphate (cGAMP) synthase (cGAS), human, endogenous in THP1 cells (enzyme, UniProt Q8N884 1-522, looked up, Endogenous protein in cell lysates) MQPWHGKAMQRASEAGATAPKASARNARGAPMDPTESPAAPEAALPKAGKFGPARKSGSRQKKSAPDTQERPPVRATGARAKKAPQRAQDTQPSDATSAPGAEGLEPPAAREPALSRAGSCRQRGARCSTKPRPPPGPWDVPSPGLPVSAPILVRRDAAPGASKLRAVLEKLKLSRDDISTAAGMVKGVVDHLLLRLKCDSAFRGVGLLNTGSYYEHVKISAPNEFDVMFKLEVPRIQLEEYSNTRAYYFVKFKRNPKENPLSQFLEGEILSASKMLSKFRKIIKEEINDIKDTDVIMKRKRGGSPAVTLLISEKISVDITLALESKSSWPASTQEGLRIQNWLSAKVRKQLRLKPFYLVPKHAKEGNGFQEETWRLSFSHIEKEILNNHGKSKTCCENKEEKCCRKDCLKLMKYLLEQLKERFKDKKHLDKFSSYHVKTAFFHVCTQNPQDSQWDRKDLGLCFDNCVTYFLQCLRTEKLENYFIPEFNLFSSNLIDKRSKEFLTKQIEYERNNEFPVFDEF",,no binding
"TANK-binding kinase 1 (TBK1), human, endogenous in THP1 cells (enzyme, UniProt Q9UHD2 1-729, looked up, Endogenous protein in cell lysates; also called TBK1/NAK) MQSTSNHLWLLSDILGQGATANVFRGRHKKTGDLFAIKVFNNISFLRPVDVQMREFEVLKKLNHKNIVKLFAIEEETTTRHKVLIMEFCPCGSLYTVLEEPSNAYGLPESEFLIVLRDVVGGMNHLRENGIVHRDIKPGNIMRVIGEDGQSVYKLTDFGAARELEDDEQFVSLYGTEEYLHPDMYERAVLRKDHQKKYGATVDLWSIGVTFYHAATGSLPFRPFEGPRRNKEVMYKIITGKPSGAISGVQKAENGPIDWSGDMPVSCSLSRGLQVLLTPVLANILEADQEKCWGFDQFFAETSDILHRMVIHVFSLQQMTAHKIYIHSYNTATIFHELVYKQTKIISSNQELIYEGRRLVLEPGRLAQHFPKTTEENPIFVVSREPLNTIGLIYEKISLPKVHPRYDLDGDASMAKAITGVVCYACRIASTLLLYQELMRKGIRWLIELIKDDYNETVHKKTEVVITLDFCIRNIEKTVKVYEKLMKINLEAAELGEISDIHTKLLRLSSSQGTIETSLQDIDSRLSPGGSLADAWAHQEGTHPKDRNVEKLQVLLNCMTEIYYQFKKDKAERRLAYNEEQIHKFDKQKLYYHATKAMTHFTDECVKKYEAFLNKSEEWIRKMLHLRKQLLSLTNQCFDIEEEVSKYQEYTNELQETLPQKMFTASSGIKHTMTPIYPSSNTLVEMTLGMKKLKEEMEGVVKELAENNHILERFGSLTMDGGLRNVDCL",,no binding
"stimulator of interferon genes (STING), mouse, endogenous in iBMDMs and RAW264.7 cells (other, UniProt Q3TBT3 1-378, looked up, Endogenous protein in cell lysates) MPYSNLHPAIPRPRGHRSKYVALIFLVASLMILWVAKDPPNHTLKYLALHLASHELGLLLKNLCCLAEELCHVQSRYQGSYWKAVRACLGCPIHCMAMILLSSYFYFLQNTADIYLSWMFGLLVLYKSLSMLLGLQSLTPAEVSAVCEEKKLNVAHGLAWSYYIGYLRLILPGLQARIRMFNQLHNNMLSGAGSRRLYILFPLDCGVPDNLSVVDPNIRFRDMLPQQNIDRAGIKNRVYSNSVYEILENGQPAGVCILEYATPLQTLFAMSQDAKAGFSREDRLEQAKLFCRTLEEILEDVPESRNNCRLIVYQEPTDGNSFSLSQEVLRHIRQEEKEEVTMNAPMTSVAPPPSVLSQEPRLLISGMDQPLPLRTDLI",no binding,
